Here are results for 3 substances from paper PMC10998906.

Assay in all cases: negative-stain EM
For experiment [1], the target named is H2/1 GCN4 (SG57 head, PR8 stalk, GCN4-trimerized) (influenza A virus A/Puerto Rico/8/34/Mount Sinai(H1N1) | influenza A virus A/Singapore/1/1957(H2N2)).
Experiment [2] addresses H5 GCN4 (IN05 HA, GCN4-trimerized) (influenza A virus A/Indonesia/5/2005(H5N1)).
In experiment [3] the target is H5/1 GCN4 (IN05 head, PR8 stalk, GCN4-trimerized) (influenza A virus A/Puerto Rico/8/34/Mount Sinai(H1N1) | influenza A virus A/Indonesia/5/2005(H5N1)).

The stoichiometry N is the number of molecules, sites or subunits per partner or assembly. In experiment [1], “H2/1 GCN4 (SG57 head, PR8 stalk, GCN4-trimerized) (domain or fragment)” came in with a stoichiometry N of 3.

“H5 GCN4 (IN05 HA, GCN4-trimerized) (domain or fragment)”: the stoichiometry N in experiment [2] worked out at 3.

“H5/1 GCN4 (IN05 head, PR8 stalk, GCN4-trimerized) (domain or fragment)” yielded a stoichiometry N in experiment [3] of 3.
